Substitutions are numbered along the chain they refer to. Names may count otherwise. Read-outs that look alike come from different tables or passages of the source. Blank lines part the entries; values can stand above or below the binder they belong to.
Experiments:
[1] = target: T1, PCSK9 with His-tag: PCSK9-His6 (human, UniProt Q8NBP7 153-692; A8T644 31-152); test: SPR Biacore, antibody captured by human Fab capture molecule on CM5, PCSK9-His6 mobile phase
T1 construct: also called huPCSK9; human PCSK9 antigen
Source text: According to the method described in the human Fab capture kit (Cat. #28-9583-25, GE), the human Fab capture molecule was covalently linked to the CM5 biochip (Cat. #BR-1000-12, GE) so that the PCSK9 antibodies of the present invention were affinity captured. Then, human PCSK9 antigen (PCSK9 with His tag: PCSK9-His6, SEQ ID NO: 1) flowed through the surface of the biochip, and the reaction signal was detected in real time using a Biacore instrument to obtain the association and dissociation curves. Finally, the affinity values were obtained by fitting and are shown at table 16 below. After each cycle of dissociation was finished, the biochip was washed and regenerated with regeneration solution in the human Fab capture kit (GE).

[2] = target: T2, PCSK9 protein inserted with biotin receiving peptide BP15 and His-tag: PCSK9-BP15-His6 (human, UniProt Q8NBP7 153-692; A8T644 31-152, biotin on the BP15 biotin receiving peptide (labeled during the expression)); test: ELISA, biotin PCSK9 on streptavidin plate
T2 construct: also called WT PCSK9; PCSK9 WT
Protocol: The binding ability of anti-PCSK9 antibodies of the present invention to PCSK9 protein (WT PCSK9, SEQ ID NO: 5) was detected by measuring the amounts of antibodies binding to PCSK9 immobilized on the ELISA plate.
(§1) Streptavidin (sigma, CAT #S4762) was diluted to 2 μg/ml with PBS and was added into a 96-well ELISA plate, at 4° C. for overnight. The plate was washed and then was blocked with Tris buffer (including 0.9 mM CaCl₂, 0.05% Tween 20 and 5% skim milk) at 37° C. for 2 hours. Then the plate was washed again and 100 μl/well of biotin-labeled PCSK9 (produced in-house, diluted with Tris buffer containing 0.9 mM CaCl₂, 0.05% Tween 20 and 1% skim milk) was added and incubated at 37° C. for 1 hour. After the wash step various concentrations of diluted PCSK9 antibody samples was added to the plate and incubated at 37° C. for 1 hour. […] Then the plate was washed and tetramethyl brenzidine solution was added for development. Finally, the stop buffer was added and the OD450 value was measured on the Microplate reader, and then EC50 was calculated.

[3] = target: T3, PCSK9 D374Y mutant protein inserted with biotin receiving peptide BP15 and His-tag: PCSK9-D374Y-BP15-His6 (human, UniProt Q8NBP7 153-692; A8T644 31-152, biotin on the BP15 biotin receiving peptide); test: ELISA, biotin PCSK9-Y on streptavidin plate
T3 construct: also called PCSK9-Y; mutant PCSK9
Protocol: The binding ability of anti-PCSK9 antibodies of the present invention to PCSK9-Y protein (mutant PCSK9, SEQ ID NO: 6) was detected by measuring the amounts of antibodies binding to PCSK9-Y immobilized on the ELISA plate.
as §1, with “hours. The” for “hours. Then the”, “washed” for “washed again”, “biotin-labeled PCSK9-Y” for “biotin-labeled PCSK9”, “wash step,” for “wash step”, “samples were” for “samples was”

[4] = target: T2, PCSK9 protein inserted with biotin …; test: competition ELISA, LDLR-FC coated, biotin PCSK9 + antibody
Protocol: (§2) Different back mutations were selected for combination (Table 3) after CDR grafting. The designed humanized sequences were fully-gene synthesized and heavy and light chains were combined with each other for mammalian expression (Table 4). After purification of the protein, the blocking activity test was performed similarly to that for chimeric antibodies (see test 3 and 4 for the method and the results are shown in Table 5). Some cloned proteins were selected and were determined for dissociation constants by Surface Plasmon resonance (SPR) (Biacore X100, GE, see test 5). The sample to be tested was captured by the Amine-Coupling Anti-Fc pAb (GE) on the CM5 chip (GE). PCSK9 (SEQ ID NO: 1) or PCSK9-Y (SEQ ID NO: 4) was the mobile phase, working buffer was 1×HBS-EP⁺, pH 7.4, regeneration bu0ffer was 3 M MgCl₂.
(§3) LDLR-FC was diluted to 5 μg/ml with phosphate buffer and was added into the 96-well ELISA plate, kept at 4° C. overnight. The plate was washed and then blocked with Tris buffer (including 0.9 mM CaCl₂, 0.05% Tween 20 and 5% skim milk) at 37° C. for 2 hours. […] Finally, the stop buffer was added and OD450 value was measured on the Microplate reader, then IC50 value was calculated.

[5] = target: T2, PCSK9 protein inserted with biotin …; test: as above; remark: listed apart in the source
Protocol: The blocking ability of PCSK9 antibodies according to the present invention for the binding of LDLR-FC (produced in-house, with sequence of SEQ ID NO: 8) and PCSK9 (SEQ ID NO: 5) was tested by measuring the amount of PCSK9 binding to LDLR in the presence of the antibodies.
(§4) LDLR-FC was diluted to 5 μg/ml with phosphate buffer and was added into the 96-well ELISA plate, kept at 4° C. overnight. The plate was washed and then blocked with Tris buffer (including 0.9 mM CaCl₂, 0.05% Tween 20 and 5% skim milk) at 37° C. for 2 hours. Then the plate was washed and 100 μl/well of mixture of biotin-labeled PCSK9 (diluted to 2 μg/ml with Tris buffer containing 0.9 mM CaCl₂, 0.05% Tween 20 and 1% skim milk) and antibody samples (diluted with Tris buffer containing 0.9 mM CaCl₂, 0.05% Tween 20 and 1% skim milk) was added and incubated at 37° C. for 1 hour. Then the plate was washed again and horseradish peroxidase-streptavidin (sigma, CAT #S2438) was added and incubated at 37° C. for 1 hour. Then the plate was washed and tetramethyl brenzidine solution was added for development. Finally, the stop buffer was added and OD450 value was measured on the Microplate reader, then IC50 value was calculated.

[6] = target: T3, PCSK9 D374Y mutant protein inserted …; test: competition ELISA, LDLR-FC coated, biotin PCSK9-Y + antibody
Protocol: as §2
as §3, with “LDLR-FC (produced in-house, with sequence of SEQ ID NO: 8)” for “LDLR-FC”, “to 2” for “to 5”, “plate,” for “plate, kept”

[7] = target: T3, PCSK9 D374Y mutant protein inserted …; test: as above; remark: listed apart in the source
Protocol: The blocking ability of PCSK9 antibodies according to the present invention for the binding of LDLR-FC and PCSK9-Y (mutant PCSK9, SEQ ID NO: 6) was tested by measuring the amount of PCSK9-Y binding to LDLR in the presence of the antibodies.
as §4, with “LDLR-FC (produced in-house, with sequence of SEQ ID NO: 8)” for “LDLR-FC”, “to 2” for “to 5”, “plate,” for “plate, kept”, “biotin-labeled mutant” for “biotin-labeled”, “to 1” for “to 2”

[8] = target: T1, PCSK9 with His-tag: PCSK9-His6; test: SPR Biacore X100, antibody captured by anti-Fc pAb on CM5, PCSK9 mobile phase
Protocol: as §2

[9] = target: T4, PCSK9-D374Y mutant protein with His-tag: PCSK9-D374Y-His6 (human, UniProt Q8NBP7 153-692; A8T644 31-152); test: SPR Biacore X100, antibody captured by anti-Fc pAb on CM5, PCSK9-Y mobile phase
T4 construct: also called PCSK9-Y; PCSK9-Y antigen
Protocol: as §2

Kd [1]: < 0.0518 nM
B2: h011-3133-YTE: h011-3133-IgG1-YTE format (antibody)
heavy: QVQLVQSGAEVKKPGASVKVSCKASGYTFTGYEIHWVRQAPGQGLEWMGYINPSATYTKFNQKFKDRVTMTRDTSISTAYMELSRLRSDDTAVYYCARERIYSNYWFFDVWGQGTTVTVSSASTKGPSVFPLAPSSKSTSGGTAALGCLVKDYFPEPVTVSWNSGALTSGVHTFPAVLQSSGLYSLSSVVTVPSSSLGTQTYICNVNHKPSNTKVDKKVEPKSCDKTHTCPPCPAPELLGGPSVFLFPPKPKDTLYITREPEVTCVVVDVSHEDPEVKFNWYVDGVEVHNAKTKPREEQYNSTYRVVSVLTVLHQDWLNGKEYKCKVSNKALPAPIEKTISKAKGQPREPQVYTLPPSRDELTKNQVSLTCLVKGFYPSDIAVEWESNGQPENNYKTTPPVLDSDGSFFLYSKLTVDKSRWQQGNVFSCSVMHEALHNHYTQKSLSLSPGK
light: DIVMTQSPSSLSASVGDRVTITCKASQNVYTAVAWYQQKPGKSPKLLIYSASNRYTGVPSRFSGSGSGTDFTLTISSLQPEDFATYFCQQYSSYPYTFGGGTKVEIKRTVAAPSVFIFPPSDEQLKSGTASVVCLLNNFYPREAKVQWKVDNALQSGNSQESVTEQDSKDSTYSLSSTLTLSKADYEKHKVYACEVTHQGLSSPVTKSFNRGEC
notes: Mutant human IgG1 (YTE: M252Y, S254T, T256E, EU numbering), human kappa light chain

EC50 [2]: 6.79 ng/mL
EC50 [3]: 0.0218 µg/mL
IC50 [5]: 2.25 µg/mL
IC50 [7]: 0.689 µg/mL
B4: h011-3195 (antibody, V domains shown)
VH: QVQLVQSGAEVKKPGASVKVSCKASGYTFTGYTIHWVRQAPGQGLEWMGYINPSSTYTKFNQKFKDRVTMTRDTSISTAYMELSRLRSDDTAVYYCARERIFSNYWFFDVWGQGTTVTVSS
VL: DIVMTQSPSSLSASVGDRVTITCKASQNVYTAVAWYQQKPGKSPKLLIYSASNRYTGVPSRFSGSGSGTDFTLTISSLQPEDFATYFCQQYSSYPYTFGGGTKVEIK

Second part, the binder before the results:

B1: h011-3133-WT: h011-3133-IgG1 format (antibody)
heavy: not shown
light: B2 light
notes: Human IgG1 heavy chain constant region, human kappa light chain
Kd [1]: < 0.0526 nM

B3: humanized antibody h011-3 (antibody, V domains shown)
VH: B4 VH with F102Y
VL: B4 VL
notes: h011_VH.1 with h011_VL.1B
EC50 [2]: 7.19 ng/mL
EC50 [3]: 1.78 µg/mL
IC50 [4]: 0.205 µg/mL
IC50 [5]: 0.681 µg/mL
IC50 [6]: 5.13 µg/mL
IC50 [7]: 5.49 µg/mL
Kd [8]: 0.263 nM
koff [8]: 1.88e-05 s⁻¹
kon [8]: 71300 M⁻¹ s⁻¹
Kd [9]: 34.5 nM
koff [9]: 0.00578 s⁻¹
kon [9]: 168000 M⁻¹ s⁻¹
